Changes are numbered by the printed parent chain.
B1: HER3-hMab-A9 (antibody, V domains shown)
VH: QVQLVESGGGLVQPGGSLRLSCSASGFSFSASYYIYWVRQAPGKGLEYIAYITGDDDKRTYYANWAKGRFTISRDNSKNTVYLQMNSLRAEDTAVYYCTRNLPDELWGPGTLVTVSS
VL: DIQMTQTPSTLSASVGDRVTITCQSSESVYSYKNLAWYQQKPGKPPKLLIWQASRLSSGVPSRFSGSGSGTEFTLTISSLQPDDFATYYCQGTYYSSAWDFVFGGGTKVEIK
B2: HER3-hMab-A10 (antibody, V domains shown)
VH: B1 VH with N76T
VL: B1 VL
B3: HER3-hMab-A11 (antibody, V domains shown)
VH: B1 VH
VL: B1 VL with D1Q, I2A
B4: HER3-hMab-A12 (antibody, V domains shown)
VH: B1 VH with N76T
VL: B1 VL with D1Q, I2A
B5: Chi46 (antibody, V domains shown)
VH: EEQLVESGGGLVQPEGSLTLTCTASGFSFSASYYIYWVRQAPGKGLEGIAYITGDDDKRTYYANWAKGRFTISKTSTTVTLQMTSLTAADTATYFCTRNLPDELWGPGTLVTVSS
VL: QAVVTQTPSSVSAAVGGTVTISCQSSESVYSYKNLAWYQQKPGQPPRLLIWQASRLSSGVSSRFSGSGSGTQFTLTISGVQCDDAATYYCQGTYYSSAWDFVFGGGTEVMVE
notes: also called parental rabbit/human Fc chimera of Rab46
B6: Chi1210 (antibody, V domains shown)
VH: QEQLEESGGGLVQPEGSLTLTCTASGFSFSSSYWICWVRQAPGKGLELIGYIWSGNGATYYASWAKGRFTISKTSSTTVTLQMTSVTATDTATYFCARNYDASGYGIFHLWGPGTLVTVSS
VL: AVVMTQTPASVSAAVGGTVTINCQASQSIVSSYLSWYQQKTGQPPKLLIYSASKLASGVPPRFSGSGSGTQFTLTISGVQCDDAATYYCLYGVDSSNIDNAFGGGTEVVVK
notes: also called parental rabbit/human Fc chimera of Rab1210
B7: HER3-hMab-A13 (antibody, V domains shown)
VH: QVQLVESGGGLVQPGGSLRLSCSASGFSFSSSYWICWVRQAPGKGLEYIGYIWSGNGATYYASWAKGRFTISRDNSKNTVYLQMNSLRAEDTAVYFCARNYDASGYGIFHLWGPGTLVTVSS
VL: DIQMTQTPSSLSASVGDRVTINCQASQSIVSSYLSWYQQKPGKPPKLLIYSASKLASGVPSRFSGSGSGTDFTLTISSLQPEDFATYYCLYGVDSSNIDNAFGGGTKVEIK
B8: HER3-hMab-A16 (antibody, V domains shown)
VH: B7 VH with Y48L, N75T
VL: B7 VL with D1A, I2V
B9: HER3-hMab-A15 (antibody, V domains shown)
VH: B7 VH
VL: B7 VL with D1A, I2V
B10: HER3-hMab-A14 (antibody, V domains shown)
VH: B7 VH with Y48L, N75T
VL: B7 VL
B11: Rab46 (antibody, V domains shown)
VH: B5 VH
VL: B5 VL
notes: also called Rab46 monoclonal antibody
B12: Rab774 (antibody, V domains shown)
VH: QSVEESGGRLVTPGTPLTLTCTVSGIDLSTYAMTWVRRAPGKGLEWLGIINRSSKTYLTDWARGRFTISKTSTTVDLKISSPTTEDTATYFCGRVMSPYSVAGGDLWGPGTLVTVSS
VL: QPVLTQSPSASAALGASAKLTCILSSDLSDYTIDWYKHQQGEAPRYLMQLRSDGSYTKGTGVPDRFSGSSSGADRYLVISSVQADDEADYYCGLPYSVEYVFGGGTQLTVT
notes: also called Rab774 monoclonal antibody
B13: Rab189 (antibody, V domains shown)
VH: QESLEESGGDLVKPEGTLTLTCKASGIGFGYYYYICWVRQAPGKGLEWIACIYTGISDSTYYATWAKGRFAISKTSSTTVTLQMTSLTAADTATYFCARSDPYYTTTYTNTYPTYWNLWGPGTLVTVSS
VL: CAFELTQTPSSVEAAVGGTVTIKCQASQSINNYLAWYQQKTGQPPKLLIYRASTLESGVPSRFKGSGSGTQFTLTISDLECADAATYYCQSYYYSSSNNYYNAFGGGTEVVVK
notes: also called Rab189 monoclonal antibody
B14: Rab1210 (antibody, V domains shown)
VH: B6 VH
VL: B6 VL
notes: also called Rab1210 monoclonal antibody

Target: T1, Mouse HER3 ECD (mouse, UniProt Q61526 20-641)
T1 construct: extracellular domain; also called mouse HER3 ECD domains
T1 sequence (Q61526 20-641): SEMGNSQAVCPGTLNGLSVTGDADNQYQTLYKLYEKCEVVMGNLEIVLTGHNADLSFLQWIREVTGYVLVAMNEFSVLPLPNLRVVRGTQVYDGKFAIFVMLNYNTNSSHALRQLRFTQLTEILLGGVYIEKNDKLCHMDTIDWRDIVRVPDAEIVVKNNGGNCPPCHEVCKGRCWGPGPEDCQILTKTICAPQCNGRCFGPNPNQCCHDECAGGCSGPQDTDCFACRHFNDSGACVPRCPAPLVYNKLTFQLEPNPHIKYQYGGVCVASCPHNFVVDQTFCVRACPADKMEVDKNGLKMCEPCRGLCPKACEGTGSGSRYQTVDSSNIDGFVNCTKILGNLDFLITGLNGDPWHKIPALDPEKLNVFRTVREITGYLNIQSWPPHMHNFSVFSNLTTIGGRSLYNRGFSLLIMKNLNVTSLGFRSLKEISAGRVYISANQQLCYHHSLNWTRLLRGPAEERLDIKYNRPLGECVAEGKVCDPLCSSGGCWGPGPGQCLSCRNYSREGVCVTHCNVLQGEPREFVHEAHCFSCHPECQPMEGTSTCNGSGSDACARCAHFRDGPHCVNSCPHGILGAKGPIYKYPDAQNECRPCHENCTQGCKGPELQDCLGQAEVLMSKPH
Test: ELISA on mouse HER3 ECD

Binder | EC50 [ng/mL]
B1 | 4.3
B2 | 5.4
B3 | 7.9
B4 | 6.7

Target: T2, human HER3/ErbB3 extracellular domain (human, UniProt P21860 20-643)
T2 construct: extracellular domain; the range 1-643 of M34309 is printed only for the immunogen; also called Human HER3 ECD; recombinant human HER3
T2 sequence (P21860 20-643): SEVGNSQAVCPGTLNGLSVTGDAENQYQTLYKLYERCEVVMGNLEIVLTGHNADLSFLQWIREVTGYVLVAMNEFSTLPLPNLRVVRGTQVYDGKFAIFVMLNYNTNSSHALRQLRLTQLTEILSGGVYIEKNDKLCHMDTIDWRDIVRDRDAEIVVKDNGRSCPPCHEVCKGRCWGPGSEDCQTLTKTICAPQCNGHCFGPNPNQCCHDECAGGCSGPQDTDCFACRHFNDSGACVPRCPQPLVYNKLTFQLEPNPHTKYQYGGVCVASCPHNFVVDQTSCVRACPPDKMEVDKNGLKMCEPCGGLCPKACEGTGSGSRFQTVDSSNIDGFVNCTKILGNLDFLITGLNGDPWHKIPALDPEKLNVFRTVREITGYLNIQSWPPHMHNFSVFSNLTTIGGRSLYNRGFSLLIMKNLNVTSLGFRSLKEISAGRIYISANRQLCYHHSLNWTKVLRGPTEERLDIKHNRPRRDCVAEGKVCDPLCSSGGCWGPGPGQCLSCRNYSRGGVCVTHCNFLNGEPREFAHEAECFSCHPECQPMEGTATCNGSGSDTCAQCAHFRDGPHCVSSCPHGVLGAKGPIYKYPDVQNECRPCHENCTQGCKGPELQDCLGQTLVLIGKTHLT
Test: ELISA on human HER3 ECD

Binder | EC50 [ng/mL]
B5 | 2.7
B1 | 3.1
B2 | 2.6
B3 | 2.6
B4 | 2.4
B6 | 2.6
B7 | 2.5
B8 | 2.3
B9 | 2.4
B10 | 1.9

Target: T3, human HER3 receptor on cells (human, UniProt P21860 20-1342)
T3 sequence (P21860 20-1342): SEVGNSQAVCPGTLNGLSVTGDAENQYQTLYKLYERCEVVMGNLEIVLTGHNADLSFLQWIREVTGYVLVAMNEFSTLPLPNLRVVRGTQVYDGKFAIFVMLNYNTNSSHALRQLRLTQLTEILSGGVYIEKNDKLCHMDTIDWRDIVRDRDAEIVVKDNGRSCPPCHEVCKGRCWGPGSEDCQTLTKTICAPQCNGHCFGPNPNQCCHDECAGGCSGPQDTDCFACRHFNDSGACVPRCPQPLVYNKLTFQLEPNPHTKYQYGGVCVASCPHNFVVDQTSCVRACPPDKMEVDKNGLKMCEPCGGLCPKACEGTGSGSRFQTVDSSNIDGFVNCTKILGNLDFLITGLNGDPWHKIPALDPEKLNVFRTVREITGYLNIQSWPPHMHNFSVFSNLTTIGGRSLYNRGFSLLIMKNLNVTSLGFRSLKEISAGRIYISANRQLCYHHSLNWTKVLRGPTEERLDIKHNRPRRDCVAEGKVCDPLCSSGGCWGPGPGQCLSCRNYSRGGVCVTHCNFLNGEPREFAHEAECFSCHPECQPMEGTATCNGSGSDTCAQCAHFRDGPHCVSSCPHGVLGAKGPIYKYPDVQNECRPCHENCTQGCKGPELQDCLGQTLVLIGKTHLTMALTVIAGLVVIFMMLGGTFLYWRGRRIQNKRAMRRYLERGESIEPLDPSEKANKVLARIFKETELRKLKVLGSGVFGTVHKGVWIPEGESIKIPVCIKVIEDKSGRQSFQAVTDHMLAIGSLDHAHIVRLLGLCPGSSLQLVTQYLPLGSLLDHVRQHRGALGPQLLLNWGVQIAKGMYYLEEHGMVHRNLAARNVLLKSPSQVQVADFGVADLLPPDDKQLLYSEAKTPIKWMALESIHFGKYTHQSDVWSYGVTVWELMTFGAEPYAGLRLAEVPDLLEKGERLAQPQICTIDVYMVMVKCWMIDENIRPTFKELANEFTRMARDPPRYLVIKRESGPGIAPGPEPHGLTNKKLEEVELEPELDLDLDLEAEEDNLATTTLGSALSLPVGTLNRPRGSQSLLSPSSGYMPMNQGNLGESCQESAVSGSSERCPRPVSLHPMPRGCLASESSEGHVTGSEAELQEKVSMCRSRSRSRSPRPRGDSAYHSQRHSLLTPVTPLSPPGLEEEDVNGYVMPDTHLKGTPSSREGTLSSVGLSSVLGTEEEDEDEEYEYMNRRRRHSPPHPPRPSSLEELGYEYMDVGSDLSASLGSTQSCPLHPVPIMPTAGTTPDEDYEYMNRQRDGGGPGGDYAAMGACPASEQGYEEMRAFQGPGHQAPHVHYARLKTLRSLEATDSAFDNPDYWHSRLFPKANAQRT
Test: cell-based or functional assay

Binder | pHER3 inhibition (IC50, µg/ml) [µg/ml]
B5 | 0.033
B2 | 0.0173
B6 | 0.0035
B10 | 0.0017

Target: T3, human HER3 receptor on cells
Test: cell-based or functional assay
Remark: another data set of the same source

Binder | pAKT inhibition, EC50 (nM) | pERK ½ inhibition, EC50 (nM) | pHER3 inhibition, EC50 (nM)
B11 | 3.8 | 6.2 | 3.5
B12 | 2.3 | 3.8 | 1.8
B13 | 3.6 | 5.5 | 1.7
B14 | 0.4 | 1.3 | 0.7

Target: T3, human HER3 receptor on cells
Test: cell-based or functional assay
Remark: another data set of the same source

Binder | % Receptor Internalization [%]
B11 | 39
B12 | 60
B13 | 55
B14 | 62

Target: T1, Mouse HER3 ECD
Test: ELISA on mouse HER3 ECD; column uncertain

Binder | EC50 [ng/mL]
B5 | 5.9

Target: T2, human HER3/ErbB3 extracellular domain
Test: SPR, Biacore T-100; antibody captured by anti-rabbit IgG, recombinant human HER3 as analyte
Experimental: All experiments were performed at 25° C. at a flow rate of 45 μl/min. To prepare a BIAcore assay, an anti-rabbit IgG antibody (50 μg/ml each in acetate buffer, pH 5.0) was immobilized onto a carboxymethyl dextran sensorchip (CM5) using amine coupling procedures as described by the manufacturer. Purified rabbit Mabs to be tested were diluted at a concentration of 5 μg/ml in 0.5% P20, HBS-EP buffer and injected on FC2 to reach 500 to 1000 RU. FC1 was used as the reference cell. Specific signals correspond to the difference of signals obtained on FC2 versus FC1. The analyte (recombinant human HER3, apparent molecular weight 97 kDa on SDS-PAGE gel) was injected during 90 sec at series of concentration dilutions (100, 50, 25, 12.5, 6.25, and 3.13, 1.56 nM) in 0.5% P20, HBS-EP buffer. These concentrations were prepared from stock solution in 0.5% P20, HBS-EP. The dissociation phase of the analyte was monitored over a 30 minute period. Running buffer was also injected under the same conditions as a double reference. After each running cycle, both flow cells were regenerated by injecting 20 to 45 μl of glycine-HCl buffer pH 1.5. Binding KD on HER3 was calculated by koff/kon kinetic rate for each HER3 monoclonal antibody (Table 2).

Binder | Kd [pM]
B11 | 7300
B12 | 160
B13 | 3600
B14 | 1000

Target: T4, Her3/His10 receptor (UniProt P21860 20-643, limits assumed)
T4 construct: extracellular domain; also called HER3 ECD tagged with 10 histidine (His); not shown: tag of 10 histidines
T4 sequence (P21860 20-643 limits assumed): as the sequence (P21860 20-643) above
Test: AlphaScreen, blocking of biotinylated NRG-1beta binding to Her3/His10 (column head prints EC50, title and text IC50)
Experimental: HER3 ligand neuregulin (NRG1) can bind on HER3 extracellular domain and activates HER3 phosphorylation and down-stream signaling. Blocking ligand binding on HER3 by the selected rabbit HER3 monoclonal antibodies was determined using alpha screen format assay. NRG1 (R&D Systems) was biotinylated using a biotinylation kit (Fisher Scientific) and HER3 ECD was tagged with 10 histidine (His). Purified anti-HER3 Mabs were serially diluted two-fold into an assay buffer made from 25 mM Hepes, 100 mM NaCl, 0.5% BSA and 0.05% Tween20 in an opaque/white, half-well area plate (Costar). Rabbit IgG1 was used as a negative control. Biotinylated NRG-lbeta ligand and Her3/His₁₀ receptor were added sequentially at 10 nM concentration to the assay plate containing serially diluted antibodies. The mixture of receptor, ligand and the antibodies was incubated at room temperature with gentle shaking for 90 minutes. AlphaScreen Streptavidin Donor beads and His-Nickel Acceptor beads were added into the assay at a final concentration of 20 μg/ml each. The assay plates were covered with foil and incubated at room temperature with gentle shaking for 1 hour. The plates were read in EnVision plate reader.

Binder | IC50 [pM]
B11 | 510
B12 | 520
B13 | 70
B14 | 100

Target: T2, human HER3/ErbB3 extracellular domain
Test: SPR, Biacore T-100, HER3 ECD

Binder | Kd [pM] | koff [s⁻¹] | kon [M⁻¹ s⁻¹]
B5 | 3320 | 0.000458 | 138000
B2 | 1200 | 0.000169 | 141000
B6 | 1200 | 0.000644 | 538000
B10 | 862 | 0.000174 | 201000

Target: T3, human HER3 receptor on cells
Test: cell-based or functional assay
Remark: another data set of the same source

Binder | Inhibition of MCF-7 cancer cell proliferation (IC50, µg/ml) [µg/mL]
B2 | 0.181
B6 | 0.084
B10 | 0.232

— patent US20180066066A1 (University of Texas, published 2018)
